In patent US20160200831A1 (Sanofi, published 2016):
Substitutions are numbered along the chain they refer to. Like-named read-outs stand apart in the source and are kept apart here.

Assays:
[1] = target: T1, human PAI-1 (human, UniProt P05121 24-402); test: cell-based or functional assay
[2] = target: T2, glycosylated human PAI-1 (active form) (human, UniProt P05121 24-402, glycosylated); test: cell-based or functional assay
[3] = target: T3, human PAI-1 captured on immobilized human vitronectin (human, UniProt P04004 20-478); test: Biacore forward assay, hPAI-1 captured on immobilized vitronectin
T3 construct: non-covalent complex formed on the chip or plate; also called PAI-1/Vn complex; Vn captured hPAI-1
Experimental: Binding kinetics of representative antibodies were further analyzed and compared in Biacore forward assay with vitronectin and PAI-1 complex. In the forward assay, human vitronectin protein was immobilized onto the CM5 chip in flow cells Fc1-Fc4 by amine coupling. Human PAI-1 was then captured to the vitronectin surface in flow cells Fc2-Fe4 as ligand. Fc1 was reserved as reference cell. The antibodies were diluted 2× starting from 40 nM and injected to Fc1-4. Kinetics data analysis was performed using Biacore BIAevaluation software. The sensorgrams were first double-referenced by subtracting the reference cell values and the blank buffer values, and then fitted by 1:1 (Langmuir) model was used with global Rmax.

[4] = target: T2, glycosylated human PAI-1 (active form); test: cell-based or functional assay; remark: listed apart in the source
[5] = target: T2, glycosylated human PAI-1 (active form); test: cell-based or functional assay; remark: listed apart in the source
[6] = target: T2, glycosylated human PAI-1 (active form); test: cell-based or functional assay; remark: listed apart in the source
[7] = target: T1, human PAI-1; test: Biacore, hybridoma supernatant
[8] = target: T3, human PAI-1 captured on immobilized …; test: Biacore, hPAI-1 on vitronectin chip, 1:1 model
[9] = target: T1, human PAI-1; test: cell-based or functional assay; remark: listed apart in the source
[10] = target: T2, glycosylated human PAI-1 (active form); test: Biacore (summary table)
Experimental: (§1) In kinetics measurement, the antibodies were evaluated in reverse at 25° C. In the reverse assay, PAI-1 antibodies were captured to the anti-mouse IgG Fc antibody surface prepared on CM5 chip followed by injecting the serial 2× dilutions of PAI-1 proteins (human or cyno) starting at 40 nM. A high flow rate was chosen at 50 ul/min to avoid mass transportation limitation. Two thousand seconds was allowed for dissociation time to accommodate for the slow off rate of the selected antibodies. The chip was regenerated by glycine-HCl, pH 1.7 buffer after each round of antibody-PAI-1 binding. Kinetics data analysis was performed using Biacore BIAevaluation software. The sensorgrams were double-referenced by subtracting the reference flow cell values and the blank buffer values. The sensorgrams were fitted by using the simulated kinetics 1:1 (Langmuir) model with local Rmax.

[11] = target: T1, human PAI-1; test: Biacore reverse assay, mAb captured by anti-mouse IgG Fc, 25 C
Experimental: as §1

[12] = target: T4, cynomolgus PAI-1 (cynomolgus monkey (Macaca fascicularis), UniProt P05121 24-402 (human entry)); test: as above
T4 construct: produced in-house in E. coli (non-glycosylated); active cyno PAI-1 in the assays; also called cyno PAI-1; cPAI-1
Experimental: as §1

[13] = target: T4, cynomolgus PAI-1; test: cell-based or functional assay
[14] = target: T5, cyno PAI-1 captured on immobilized human vitronectin (cynomolgus monkey; human, UniProt P04004 20-478, limits assumed); test: Biacore, cPAI-1 on vitronectin chip, 1:1 model
T5 construct: non-covalent complex formed on the chip; also called cPAI-1/Vn

[15] = target: T1, human PAI-1; test: cell-based or functional assay; remark: listed apart in the source
[16] = target: T1, human PAI-1; test: Biacore, hybridoma supernatant; hybridoma supernatant, off-rate screen (class, not a fitted rate)
Experimental: In the Biacore reverse screening assay, ELISA positive hybridoma supernatants were selected and filtered through 0.2 μm filters before being injected onto Biacore chip surface. Each hybridoma supernatant was injected onto one flow cell of flow cells Fc2-Fc4 and the IgG in the hybridoma supernatant would be captured to the chip surface by anti-mouse IgG Fc mAb, while Fc1 was left alone as reference cells. Human PAI-1 protein in PBS was then injected to Fc1 to Fc4. PBS buffer was also injected over the chip surface as a blank. After subtracting signals of Fc1 and blank buffer runs, the binding affinity (KD)/disassociation rate (kd) of the antibody from the supernatants to PAI-1 protein was analyzed and ranked using Scrubber 2 software.

[17] = target: T1, human PAI-1; test: Biacore reverse assay, mAb captured by anti-mouse IgG Fc, 25 C; reverse assay: B28 captured by anti-mouse IgG Fc, PAI-1 injected, 25 C
Experimental: as §1

[18] = target: T2, glycosylated human PAI-1 (active form); test: cell-based or functional assay; remark: listed apart in the source
[19] = target: T2, glycosylated human PAI-1 (active form); test: cell-based or functional assay; remark: listed apart in the source
[20] = target: T1, human PAI-1; test: cell-based or functional assay; remark: listed apart in the source
[21] = target: T4, cynomolgus PAI-1; test: Biacore, mAb on anti-human IgG Fc chip / cyno PAI-1, 1:1 model
[22] = target: T1, human PAI-1; test: cell-based or functional assay; remark: listed apart in the source
[23] = target: T4, cynomolgus PAI-1; test: cell-based or functional assay; remark: listed apart in the source
[24] = target: T5, cyno PAI-1 captured on immobilized …; test: Biacore, cPAI-1 on vitronectin chip, two state reaction model (kd1)
[25] = target: T5, cyno PAI-1 captured on immobilized …; test: Biacore, cPAI-1 on vitronectin chip, two state reaction model
[26] = target: T5, cyno PAI-1 captured on immobilized …; test: Biacore, cPAI-1 on vitronectin chip, two state reaction model (ka1)
[27] = target: T1, human PAI-1; test: Biacore, mAb on anti-human IgG Fc chip, 1:1 model
[28] = target: T3, human PAI-1 captured on immobilized …; test: Biacore, hPAI-1 on vitronectin chip, two state reaction model
[29] = target: T3, human PAI-1 captured on immobilized …; test: Biacore, hPAI-1 on vitronectin chip, two state reaction model (ka1); two state reaction model, ka1 is the first-step rate
[30] = target: T3, human PAI-1 captured on immobilized …; test: Biacore, hPAI-1 on vitronectin chip, two state reaction model (kd1)

T4 sequence (P05121 other isoform, or with tags, fused parts or gaps limits assumed): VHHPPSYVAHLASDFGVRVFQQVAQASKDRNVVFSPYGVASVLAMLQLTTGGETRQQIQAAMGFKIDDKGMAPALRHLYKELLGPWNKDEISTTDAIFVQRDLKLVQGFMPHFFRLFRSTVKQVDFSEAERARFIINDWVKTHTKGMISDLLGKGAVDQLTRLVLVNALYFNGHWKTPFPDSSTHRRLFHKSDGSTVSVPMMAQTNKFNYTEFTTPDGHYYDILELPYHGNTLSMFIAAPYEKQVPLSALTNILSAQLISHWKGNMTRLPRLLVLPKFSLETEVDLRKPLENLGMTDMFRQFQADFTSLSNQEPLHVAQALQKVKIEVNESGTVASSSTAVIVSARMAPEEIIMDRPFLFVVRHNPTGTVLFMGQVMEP
T5 sequence (chain, as listed by the source limits assumed, chain 1 of 2): as the sequence (P05121 other isoform, or with tags, fused parts or gaps limits assumed) above
T5 sequence (P04004 20-478 limits assumed, chain 2 of 2): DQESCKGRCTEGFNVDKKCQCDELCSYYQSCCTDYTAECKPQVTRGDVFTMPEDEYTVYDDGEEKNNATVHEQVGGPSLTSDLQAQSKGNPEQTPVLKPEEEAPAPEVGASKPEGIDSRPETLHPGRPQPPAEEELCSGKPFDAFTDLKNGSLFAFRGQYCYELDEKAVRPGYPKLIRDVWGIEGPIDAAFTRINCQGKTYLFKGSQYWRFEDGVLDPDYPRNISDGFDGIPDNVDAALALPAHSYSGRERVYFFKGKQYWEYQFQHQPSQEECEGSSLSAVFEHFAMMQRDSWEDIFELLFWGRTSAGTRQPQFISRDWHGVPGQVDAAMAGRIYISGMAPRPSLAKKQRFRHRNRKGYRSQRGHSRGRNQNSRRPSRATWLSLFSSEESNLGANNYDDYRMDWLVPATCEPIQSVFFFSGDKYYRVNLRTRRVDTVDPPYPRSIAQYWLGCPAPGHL
T2 sequence (P05121 24-402 limits assumed): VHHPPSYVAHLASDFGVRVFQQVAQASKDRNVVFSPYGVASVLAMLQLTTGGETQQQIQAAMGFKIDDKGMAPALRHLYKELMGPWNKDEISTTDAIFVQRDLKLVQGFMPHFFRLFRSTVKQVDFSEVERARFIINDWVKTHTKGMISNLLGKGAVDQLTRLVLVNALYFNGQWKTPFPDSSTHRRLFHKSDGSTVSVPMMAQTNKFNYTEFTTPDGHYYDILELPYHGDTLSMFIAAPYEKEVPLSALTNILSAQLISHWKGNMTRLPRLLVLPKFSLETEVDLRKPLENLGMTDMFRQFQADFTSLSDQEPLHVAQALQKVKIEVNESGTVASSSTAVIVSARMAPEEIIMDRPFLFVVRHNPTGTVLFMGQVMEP
T1 sequence (P05121 24-402 limits assumed): as above
T3 sequence (chain, as listed by the source limits assumed, chain 1 of 2): as the sequence (P05121 24-402 limits assumed) above
T3 sequence (P04004 20-478 limits assumed, chain 2 of 2): as the sequence (P04004 20-478 limits assumed, chain 2 of 2) above

B1: A44 (antibody, mouse IgG1, V domains shown)
VH: EMQLQESGPSLVKPSQTLSLTCSVTGDSMTNGYWNWIRKFPGNKLEYMGYITYSGSTYYNPSLKGRISITRNTSKNQYYLQLSSVTTEDTATYYCARWHYGSPYYFDYWGQGTTLTVSS
VL: DIKMTQSPSSMYASLGERVTITCKASQDINSYLSWLQQKPGKSPKTLIYRANRSVDGVPSRFSGSGSGQDYSLTISSLEYEDMGIYYCLQYDEFPPTFGGGTKLEIKR
notes: mouse IgG1/kappa; also called mA44; A44 parental
Chromogenic Assay IC50 [1]: 440 pM
Plasminogen Activation IC50 [2]: 3170 pM
Plasminogen Activation Y50% [2]: 46%
Kd [3]: ≤ 1 pM
koff [3]: ≤ 1e-06 s⁻¹
Plasmin Generation [4]: 3.32 nM
Plasminogen Activation IC50 [5]: 3130 pM
Plasminogen Activation Y50% [5]: 79.8%
plasmin generation, hepatic stellate cells, IC50abs [6]: 3320 pM
plasmin generation, hepatic stellate cells, Imax [6]: 97%
koff [7]: ≤ 0.0001 s⁻¹
Kd [8]: 40.4 pM
koff [8]: 0.000229 s⁻¹
kon [8]: 5.68e+06 M⁻¹ s⁻¹
EC50, fall of % tPA inhibition by PAI-1 (chromogenic neutralisation assay) [9]: 4030 pM
Kd [10]: 0.042 pM
Kd [11]: 3.76 pM
koff [11]: 1.49e-05 s⁻¹
Kd [12]: ≤ 0.1 pM
koff [12]: ≤ 1e-06 s⁻¹
EC50, % PAI-1 neutralization, 2.8 nM cyno PAI-1 (chromogenic assay with human tPA); plateau about 100 % [13]: 226 pM
Kd [14]: 69.6 pM
koff [14]: 0.000275 s⁻¹
kon [14]: 3.98e+06 M⁻¹ s⁻¹

B2: B28 (antibody, mouse IgG2b, V domains shown)
VH: QVQLQQSGAELMKPGASVKISCKATGYTFSISWIEWIKQRPGGLEWIGKILPGSGGANYNEKFKGKATVTADTSSNTVYMQLSSLTSEDSAVYYCARLSTGTRGAFDYWGQGTTLTVSS
VL: DIQLTQSPASLSASVGATVTITCRASENVYSYLAWYQQKQGKSPQLLVYNAKTLAEGVPSRFSGSGSGTQFSLKINYLQPEDFGSYYCQHHYGTPPTFGGGTKVEIKR
notes: mouse IgG2b/kappa; also called mB28; B28 (IgG2b/k)
EC50, % neutralization of hPAI-1 (chromogenic assay) [15]: 2300 pM
Chromogenic Assays [4]: 1.8 nM
Plasmin Generation [4]: 7.28 nM
koff [16]: ≤ 0.0001 s⁻¹
plasmin generation, hepatic stellate cells, IC50abs [6]: 7280 pM
plasmin generation, hepatic stellate cells, Imax [6]: 90%
Kd [17]: 650 pM
koff [17]: 0.000461 s⁻¹
Kd [10]: 650 pM

B3: A44-hv11 (antibody, V domains shown)
VH: QMTLKESGPTLVKPTQTLSLTCSVSGDSMTNGYWNWIRQFPGKALEYMGYITYSGSTYYNPSLKGRITITRDTSKNQYYLTLSSVTTVDTATYYCARWHYGSPYYFDYWGQGTTLTVSS
VL: DIKMTQSPSSLSASVGDRVTITCKASQDINSYLSWLQQKPGKSPKTLIYRAQRSVEGVPSRFSGSGSGQDYSLTISSLQPEDLGIYYCLQYDEFPPTFGGGTKLEIK
notes: humanized A44, HEK293; compared with a human IgG1 isotype control; constant regions as for A44-hv1; also called A44V11; A44v11
Plasminogen Activation IC50 [5]: 2010 pM
Plasminogen Activation Y50% [5]: 85.8%
human plasma clot lysis, IC50 [18]: 1380 pM
human plasma clot lysis, Imax @ 100 nM [18]: 113%
human plasma clot lysis restoration, IC50 [19]: 2000 pM
PAI-1 activity in human liver lysate (UK-PAI complex ELISA), IC50, A44-hv11 (1 nM) [20]: 36.5 pM
PAI-1 activity in human liver lysate (UK-PAI complex ELISA), IC50, A44-hv11 (2 nM) [20]: 50.3 pM
PAI-1 activity in human liver lysate (UK-PAI complex ELISA), IC50, A44-hv11 (3 nM) [20]: 46.5 pM
Kd [21]: 30 pM
koff [21]: 5.6e-05 s⁻¹
kon [21]: 1.87e+06 M⁻¹ s⁻¹
active PAI-1 by uPA-PAI-1 complex ELISA, hPAI-1 Standard, IC50 [22]: 131 pM
active PAI-1 by uPA-PAI-1 complex ELISA, hPAI-1 Standard, Y50% [22]: 50.8%
active PAI-1 by uPA-PAI-1 complex ELISA, hPlasma TH1782, IC50 [22]: 15.7 pM
active PAI-1 by uPA-PAI-1 complex ELISA, hPlasma TH1782, Y50% [22]: 37.5%
active PAI-1 by uPA-PAI-1 complex ELISA, Cyno PAI-1, IC50 [23]: 42.4 pM
active PAI-1 by uPA-PAI-1 complex ELISA, Cyno PAI-1, Y50% [23]: 50.8%
koff [24]: 0.0006 s⁻¹
Kd [8]: 15.6 pM
koff [8]: 0.000122 s⁻¹
kon [8]: 7.66e+06 M⁻¹ s⁻¹
Kd [25]: 387 pM
kon [26]: 1.56e+06 M⁻¹ s⁻¹
Kd [27]: 42.5 pM
koff [27]: 6.68e-05 s⁻¹
kon [27]: 1.57e+06 M⁻¹ s⁻¹

B4: A44-hv2 (antibody, V domains shown)
VH: B1 VH with S10G, Q16E, N43K, K44G, Q81K, E88A
VL: DIKMTQSPSSVSVSPGQTVTITCKASQDINSYLSWLQQKPGQSPKTLIYRANRSVDGVPSRFSGSGSGQDYSLTISSLQAMDEGIYYCLQYDEFPPTFGGGTKLTIK
notes: humanized A44, HEK293; constant regions as for A44-hv1; also called LC1b x HC1b; variant 2
Chromogenic Assay IC50 [1]: 600 pM
Kd [28]: 135 pM
koff [24]: 0.000314 s⁻¹
kon [29]: 2.99e+06 M⁻¹ s⁻¹
Kd [25]: 137 pM
kon [26]: 2.3e+06 M⁻¹ s⁻¹
koff [30]: 0.000403 s⁻¹
